The values below come from patent US7265263B1, “Potato transcription factors, methods of use thereof, and a method for enhancing tuber development” (Iowa State University Research Foundation, Inc., priority 2002, dated 2007).

In one assay the test system is ga20ox1 promoter. The experiment in a line: Transcription assay, GUS reporter driven by ga20ox1 promoter in tobacco protoplasts. Format: cell-based, potato. From the text: The cauliflower mosaic virus (CaMV) 35S promoter in pBI221 (Clontech, Palo Alto, Calif.) was replaced by an enhancer fragment (-832 to -50) of the 35S promoter plus 980 bp of the ga20ox1 promoter to generate the pGAOP::β-glucuronidase (GUS) reporter construct. With this construct, the reporter GUS transcription level is augmented but its transcription may still be affected by the ga20ox1 promoter. A CaMV 35S promoter-driven luciferase (LUC) construct 35S-LUC (obtained from Dr. Takahashi, Dept. of Biological Sciences, Graduate School of Science, Univ. of Tokyo, Japan) was used as an internal control. Effector constructs were also generated by using pBI221 vector as a backbone, with the GUS gene replaced by the full-length cDNAs of either StBEL-05 or POTH1, downstream of the CaMV 35S promoter. Truncated cDNAs that encode the N-terminal protein-binding domains of StBEL-05 or POTH1 were used to generate the dominant negative constructs, StBEL5ΔC295 and POTH1ΔC122, respectively. The reporter construct with the mutated promoter was generated by site-directed PCR mutagenesis with oligos 5′-CTATTTGACTTC*ACACGGTTATTT-3′ (SEQ ID NO:23) and 5′-AAATAACCGTGTG*AAGTCAAATAG-3′ (SEQ ID NO:24).
Fully expanded leaves from three- to four-week-old tobacco plants were excised and placed in K3 basal media (Kao et al., “Nutritional Requirements for Growth of Vicia hajastana Cells and Protoplasts at a Very Low Density in Liquid Media,” Planta 126:105-110 (1975), which is hereby incorporated by reference in its entirety) supplemented with 0.4 M sucrose, 0.25% (w-v) cellulases (Karlan Research Products, Santa Rosa, CA), and 0.05% (w-v) macerases (Calbiochem, La Jolla, Calif.) and incubated for overnight at 28° C. After incubation, the liberated protoplasts were filtered through sterile cheesecloth into a Babcock bottle, and centrifuged for 10 minutes at 1000 rpm. Protoplasts were collected from the bottleneck area and washed once in K3 media with 0.4 M sucrose and resuspended in K3 media containing 0.4 M glucose to a final concentration of 4×10^6 protoplasts per milliliter. […]
Luciferase assays were performed by injecting 100-μL luciferase substrate (Promega, Madison, Wis.) into 20 μL of extract and measuring the emitted photons for 15 seconds in a TD-20 luminometer (Turner Designs, Sunnyvale, Calif.). […] A fluorescence multiwell plate reader, Fluoroskan II (MTX labs, Vienna, Va.), was used to measure GUS activity at 365 nm (excitation) and 455 nm (emission). Each sample was measured three times for both LUC and GUS activity. Relative GUS-LUC activity was calculated by dividing the ratio of GUS activity to LUC activity from different effectors with the ratio from reporter plasmid alone. Relative activities calculated from three transfection replications were presented as a mean±SE.

In assay [1] the test system is potato ga20ox1 promoter (P1, P2, P3) and first intron. As to the kind of experiment: Gel retardation assay with ga20ox1 promoter regions and first intron. In kind it is binding. From the text: The first intron with partial flanking exon sequence (450 bp) of potato ga20ox1 and its promoter (981 bp, provided by Dr. Salomé Prat, CSIC Cantoblanco Campus, Univ. of Madrid, Spain) were used for gel mobility shift assays. Polymerase chain reaction (PCR) was used to amplify three regions of the promoter: -981 to 636 (P1), -660 to 307 (P2), and -331 to 0 (P3). About a 25-bp overlap was maintained between P1 and P2 or P2 and P3 in the chance that the protein-binding site would span the overlapped region. The first intron of this gene was amplified from potato genomic DNA by using PCR and the oligos 5′-[…]-3′ (SEQ ID NO:21) and 5′-[…]-3′ (SEQ ID NO:22) as primers. These primers were designed based on the site of the first intron of the tobacco GA20 oxidase gene Ntc12. The four fragments were purified on a 1.4% agarose gel and labeled with α^32P-dATP using Klenow fragment. […]
In the competition assays, unlabeled double-stranded DNA fragments (10×, 25×, 50×, 100×) were incubated with the recombinant protein before the addition of the radioactive probe. The dissociation rates were determined by adding 500-fold more cold DNA fragments to the DNA-binding reactions that were being incubated on ice, and loaded onto the running gel every 10 minutes. […]

B1: StBEL-05 protein from pGEM11Z (in vitro transcription/translation) (other)
chain: MYYQGTSDNTNIQADHQQRHNHGNSNNNNIQTLYLMNPNNYMQGYTTSDTQQQQQLLFLNSSPAASNALCHANIQHAPLQQQHFVGVPLPAVSLHDQINHHGLLQRMWNNQDQSQQVIVPSSTGVSATSCGGITTDLASQLAFQRPIPTPQHRQQQQQQGGLSLSLSPQLQQQISFNNNISSSSPRTNNVTIRGTLDGSSSNMVLGSKYLKAAQELLDEVVNIVGKSIKGDDQKKDNSMNKESMPLASDVNTNSSGGGESSSRQKNEVAVELTTAQRQELQMKKAKLLAMLEEVEQRYRQYHHQMQIIVLSFEQVAGIGSAKSYTQLALHAISKQFRCLKDAIAEQVKATSKSLGEEEGLGGKIEGSRLKFVDHHLRQQRALQQIGMMQPNAWRPQRGLPERAVSVLRAWLFEHFLHPYPKDSDKIMLAKQTGLTRSQVSNWFINARVRLWKPMVEEMYLEEVKNQEQNSTNTSGDNKNKETNISAPNEEKHPIITSSLLQDGITTTQAEISTSTISTSPTAGASLHHAHNFSFLGSFNMDNTTTTVDHIENNAKKQRNDMHKFSPSSILSSVDMEAKARESSNKGFTNPLMAAYAMGDFGRFDPHDQQMTANFHGNNGVSLTLGLPPSENLAMPVSQQNYLSNDLGSRSEMGSHYNRMGYENIDFQSGNKRFPTQLLPDFVTGNLGT
notes: 35S-methionine labelled prey; also called p11Z-5
For the molecule B1, the “relative GUS-LUC activity of the pGAOP::GUS reporter construct” value in the assay on ga20ox1 promoter (co-transfected effector, reporter alone = 100%) is “decreased by more than half”. Also, the “repression of promoter activity, reporter with point mutation in the binding site” value with ga20ox1 promoter (mutated ga20ox1 promoter) was “no detectable repression”. In assay [1], the “binding to ga20ox1 regulatory regions (mobility shift)” value was “retarded the mobility of all three promoter sequences and the first intron”.
